Experimental data from patent US20030013150A1.

Target: plasminogen
Assay: cell-based or functional assay

Q: “Bacteriophages which harbored K2S on gpIII (K2S-?) (from UniProt P00750 209-562)” was tested. Which fibrinogen-dependent enzymatic activity (amidolytic assay, plasminogen and S-2251) did it give?
A: < 0.25 IU/ml
